Test [1] concerns the target T1, E. coli GlpG consisting of residues 87-276 (ΔN-GlpG) (E. coli, UniProt P09391 87-276).
T1 sequence (looked up): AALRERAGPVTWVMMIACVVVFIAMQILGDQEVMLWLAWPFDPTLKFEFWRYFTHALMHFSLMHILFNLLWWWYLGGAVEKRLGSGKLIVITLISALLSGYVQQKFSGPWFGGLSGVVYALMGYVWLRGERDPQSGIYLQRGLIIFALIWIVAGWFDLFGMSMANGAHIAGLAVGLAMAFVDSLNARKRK
As to the kind of experiment: crystal structure.

Test [2] deals with P. falciparum rhomboid protease PfROM4 (HA-tagged) (P. falciparum). As to the kind of experiment: cell-based or functional assay.

Two molecules from paper PMC7680425 (Cell chemical biology, 2020) can be followed below.

* marks the point of attachment. CONH‑phenylbutyl = C-terminal alpha-ketoamide warhead with phenylbutyl on the amide nitrogen, O=C(NCCCCc1ccccc1)*; B(OH)2 = C-terminal boronate warhead, OB(O)*

B1: rhomboid-inhibiting ketoamide (RiKa), Ac-RVWHA-CONH-phenylbutyl (peptide)
peptide: Ac-RVWHA-{CONH‑phenylbutyl}
With B1, in test [1], the binding result was “binds”. For the same molecule, the “EC50 of inhibition of EBA175 cleavage by PfROM4 in HEK293T cells” value in test [2] was determined as 55 nM.

B2: rhomboid-inhibiting boronate (RiBn), Ac-KRFRSMQYSA-B(OH)2 (peptide)
peptide: Ac-KRFRSMQYSA-{B(OH)2}
SMILES: CSCC[C@H](NC(=O)[C@H](CO)NC(=O)[C@H](CCCNC(=N)N)NC(=O)[C@H](Cc1ccccc1)NC(=O)[C@H](CCCNC(=N)N)NC(=O)[C@H](CCCCN)NC(C)=O)C(=O)N[C@@H](CCC(N)=O)C(=O)N[C@@H](Cc1ccc(O)cc1)C(=O)N[C@@H](CO)C(=O)N[C@@H](C)C(=O)B(O)O
Consider B2, for which the binding result in test [1] is recorded as “binds”.
